Experimental findings from patent publication US20170334973A1 (INTEGRATED BIOTHERAPEUTICS, published 2017) are described below.

Test [1] has as its target T1, EBOV GPddmuc (Ebola virus (EBOV), UniProt Q05320 33-650). The test can be described thus: ELISA. On the technique in general: In an ELISA, binding on a coated surface is turned into a signal by an enzyme label.
The target of test [2] is T2, SUDV GPddmuc (Sudan virus (SUDV), UniProt Q66814 33-650). The test can be described thus: ELISA.
Test [3] addresses T3, MARV GPddmuc (Marburg virus (MARV), UniProt P35253 19-648). The test can be described thus: native ELISA.
In test [4] the target is T3, MARV GPddmuc. Kind of test: ELISA.
The target in test [5] is T1, EBOV GPddmuc. Kind of test: native ELISA.
The target in test [6] is T2, SUDV GPddmuc. The test can be described thus: native ELISA.

B1: FVM28 (antibody, V domains shown)
VH: EVQLVQSGAEVKRPGESLKISCQTSGYRFTSSWISWVRQMPGKGLEWMGAIDPSDSETRYSPSFQGQVTISADKSISTAYLKWSSLKASDTATYYCVKGSETWGQGVLVTVSS
VL: QAALTQPASLSASPGASASLTCTFSGGINVAGYHILWYQQKPGSPPRYLLRYKSDSEKDQGSGVPSRFSGSKDASANRGILRISGLQSEDEADYYCAIGHSSSGWVFGGGTRLTVL
In general, EC50 refers to the midpoint of the concentration-response curve. For B1, the EC50 with EBOV GPddmuc [1] and in the test with SUDV GPddmuc [2] was 0.047 nM throughout. The binding result with MARV GPddmuc [3] was “no binding”.

B2: FVM32 (antibody, V domains shown)
VH: QVQLVQSGAEVKRPGESLRISCKTSGYSFTDSWVAWVRQMPGKGLEWLGSIYPGDSDTRYSPSFQGQVTISADKSITTAYLKWSSLKASDTATYYCVKGSETWGQGVLVTVSS
VL: QPVLTQPASLSASPGASASLTCTFNGGITVPGYDILWYQQKSGSPPRYLLRYKSDSTKDQGSGVPSRFSGSKDASTNTGILRISGLQSEDEADYYCAIGHSSGWIFGGGTRLTVL
For the molecule B2, the EC50 was 0.073 nM with EBOV GPddmuc [1] and 0.127 nM with SUDV GPddmuc [2]. Also, the binding result with MARV GPddmuc [3] was “no binding”.

B3: FVM03 (antibody, V domains shown)
VH: QVQLQESGPVLVKPSETLSLTCAVSGYSISSAYAWSWIRQPPGKGLEWVGYVGSSSDYNPSLKSRVTISRDTSKNRIFLNLRSLTAADTAVYYCARDRANNSMDVWGRGVLVTVSS
VL: EIVLTQSPDSLGVSLGERVTINCKSSQSLLYSSNNKNYLAWYQQKPGQAPKLLIYWASTRESGVPNRFSGSGSGTDFTLTISGLQAEDVAVYYCQQYYSTPLTFGQGTKVEIKR
Regarding B3, a half-maximal effect with MARV GPddmuc [4] (EC50) was put at 0.306 nM. Besides, the binding result in the test with EBOV GPddmuc [5] and with SUDV GPddmuc [6] was “no binding” each time.

B4: FVM02P (antibody, V domains shown)
VH: EVQLVESGGGLVQPGGSLRLSCAASGFTGFTFSDYAFYWVRQAPGKGLEWVGFIRGKAYGGTADYAASVKGRFTISRDNSKNTAYLQMSSLKTEDSAVYYCTSQGVTVATPYHWGQGVLVTVSS
VL: DIVLTQSPLSLPVTPGEPASISCRSSQSLLHSGGKTYLYWYLQKPGQSPQLLIHEVSNRASGVPDRFSGSGSGTDFTLKISRVEAEDVGVYYCMQGIQLPLTFGGGTKVEIKR
On to B4, for which the figures for the concentration for a half-maximal effect (EC50) in the test with EBOV GPddmuc [1], with SUDV GPddmuc [2] and with MARV GPddmuc [4] were 0.127 nM, 0.158 nM and over 10 nM, respectively.
